Assay [1] addresses T1, RAGE-derived peptide NtermR31 (human).
T1 construct: Synthetic peptide with a free carboxyl terminus
T1 peptide: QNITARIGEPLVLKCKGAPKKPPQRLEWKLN
Briefly: dot blot, non-denatured peptide on nitrocellulose. An excerpt: (§1) Dot blots were used to evaluate the binding of antibodies to peptides or fragments of RAGE in a non-denatured form. […] Peptides were ordered and synthesized by Biotrend according to standard methods (solid phases peptide synthesis on AMS 222 synthesizer using Fmoc/tBu-chemistry) containing a free carboxyl terminus. Peptides were HPLC-purified and analysis of every peptide for purity was done using RP-HPLC. […] The identities of peptides were verified by mass spectrometry.
(§2) Dots consisting of different amount of protein/peptide (30 ng, 10 ng, 3 ng, 1 ng, 0.3 ng, 0.1 ng, 0.03 ng, and 0.01 ng) in a volume of 1 μl in 1×PBS were spotted onto a Hybond-ECL Nitrocellulose Membrane (Amersham, RPN68D) in duplicates. Membranes were dried and unspecific binding was blocked by shaking the membranes for 1 hour at room temperature with Western Blocking reagent (Roche, no. 1921673). Blocking reagent was discarded and the membranes were incubated with antibodies in a concentration of 7.14 nM (shaking, 1 hour at room temperature). […] Blots were washed 4 times (each time 5 minute incubation with shaking at room temperature) with 1×PBS. Blots were then incubated with goat anti mouse IgG AP secondary antibody (Sigma no. A-7434) diluted 1:2000 in Western Blocking Reagent (Roche, no. 192173). Incubation for 1 hour was as before (shaking, room temperature). The filters were washed 4 times (5 minutes each) in 1×PBS. Development of signals was according to manufacturers instructions with NBT/BCIP substrate solution (Roche, no. 1697471). Color development was stopped after 10 minutes with bi-distilled water.

In the next assay the target is T2, RAGE-derived peptide 3 (human).
T2 construct: Synthetic peptide with a free carboxyl terminus
T2 peptide: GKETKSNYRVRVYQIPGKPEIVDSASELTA
Briefly: dot blot, non-denatured peptide on nitrocellulose.
Text: as §1, §2

The target in another assay is T3, RAGE-derived peptide 9 (human).
T3 construct: Synthetic peptide with a free carboxyl terminus
T3 peptide: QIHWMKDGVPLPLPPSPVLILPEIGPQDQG
Briefly: dot blot, non-denatured peptide on nitrocellulose.
Text: as §1, §2

The target in a further assay is T4, RAGE-derived peptide 4 (human).
T4 construct: Synthetic peptide with a free carboxyl terminus
T4 peptide: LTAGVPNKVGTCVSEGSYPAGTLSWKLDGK
Briefly: dot blot, non-denatured peptide on nitrocellulose.
Text: as §1, §2

The target in the next assay is T5, RAGE-derived peptide 2 (human).
T5 construct: Synthetic peptide with a free carboxyl terminus
T5 peptide: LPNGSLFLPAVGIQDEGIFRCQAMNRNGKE
Briefly: dot blot, non-denatured peptide on nitrocellulose.
Text: as §1, §2

The next assay deals with T6, RAGE-derived peptide 6 (human).
T6 construct: Synthetic peptide with a free carboxyl terminus
T6 peptide: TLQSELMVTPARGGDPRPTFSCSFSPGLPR
Briefly: dot blot, non-denatured peptide on nitrocellulose.
Text: as §1, §2

The target in a further assay is T7, RAGE-derived peptide 1 (human).
T7 construct: Synthetic peptide with a free carboxyl terminus
T7 peptide: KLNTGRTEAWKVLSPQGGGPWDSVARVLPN
Briefly: dot blot, non-denatured peptide on nitrocellulose.
Text: as §1, §2

In assay [2] the target is T8, E. coli RAGE Construct #6, 6His-(Thr)-[RAGE (130-336)] (human, UniProt Q15109 130-336).
T8 construct: Expressed in E. coli with an N-terminal 6His-(Thr) tag, which is part of the entry; also called RAGE protein #6
Briefly: ELISA: RAGE 130-336 (E. coli, D#1478) coated, mAb titrated, anti-mouse HRP conjugate, TMB. How it is done:
(§3) Antigens (purified construct #1-7 proteins) were diluted into Coating Buffer [100 mM NaHCO₃, pH 8.2] to 1 μg/ml, and 100 μl of the resulting solution was then aliquoted into a 96-well Nunc Immuno Plate (Maxi-Sorb Surface, flat bottom, catalog #439454). The plate was sealed with sealing film and incubated at 4° C. overnight. The next day, the plate wells were each washed 3 times with 150 μL PBST buffer [Sigma PBS+0.05% Tween 20]. Then 300 ul of blocking solution (3% NFDM in PBST) was added to each well. The plate was incubated for 2 hours at room temperature and shaking at 100 rpm. After the incubation step, each well was again washed three times with 150 uL PBST. […] The plate was then sealed with sealing film and incubated for 2 hours at room temperature and shaking at 100 rpm. Next the antibody solution was drained out of the wells, and each well then washed three times with 200 ul PBST. To each well then 200 ul of a 1:5000 dilution (in PBST/1% NFDM) of conjugated secondary antibody [Donkey anti-mouse HRPO conjugate, Jackson Immuno Research, Catalog #715-035-150] was added. The plate was covered and allowed to incubate for 1 hour at room temperature while shaking at 100 rpm. Following this incubation, the solution was removed from the wells and each well was washed three times with 200 ul PBST. To each well 100 μL of HRPO substrate [3,3′,5′,5′-Tetramethylbenzidine Liquid Substrate (TMB), Supersensitive for ELISA, Sigma Catalog #T4444] solution was added and the plate incubated at room temperature for 10 minutes. Finally, 50 μL of 2M H₂SO₄ was added to each well to stop the reaction and the A₅₄₀ₙₘ of each well was measured using a microtiter plate reader.

The target of assay [3] is T9, E. coli RAGE Construct #2, 6His-(Thr)-[RAGE (24-129)] (human).
T9 construct: Expressed in E. coli with an N-terminal 6His-(Thr) tag, which is part of the entry; also called RAGE protein #2
T9 chain: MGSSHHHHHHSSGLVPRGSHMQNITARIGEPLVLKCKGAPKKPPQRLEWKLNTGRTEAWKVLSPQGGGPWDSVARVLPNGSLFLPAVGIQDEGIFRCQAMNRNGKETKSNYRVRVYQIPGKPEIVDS
Briefly: ELISA: RAGE 24-129 (E. coli, D#1474) coated, mAb titrated, anti-mouse HRP conjugate, TMB. How it is done: as §3
In general terms: In an ELISA, binding on a coated surface is turned into a signal by an enzyme label.

The target in assay [4] is T10, E. coli RAGE Construct #7, 6His-(Thr)-[RAGE (235-336)] (human).
T10 construct: Expressed in E. coli with an N-terminal 6His-(Thr) tag, which is part of the entry; also called RAGE protein #7
T10 chain: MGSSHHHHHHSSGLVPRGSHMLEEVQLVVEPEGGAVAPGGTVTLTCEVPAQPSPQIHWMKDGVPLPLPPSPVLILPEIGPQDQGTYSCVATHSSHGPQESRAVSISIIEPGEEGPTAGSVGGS
Briefly: ELISA: RAGE 235-336 (E. coli, D#1479) coated, mAb titrated, anti-mouse HRP conjugate, TMB. The method, then:
as §3

T8 sequence (Q15109 other isoform, or with tags, fused parts or gaps limits assumed): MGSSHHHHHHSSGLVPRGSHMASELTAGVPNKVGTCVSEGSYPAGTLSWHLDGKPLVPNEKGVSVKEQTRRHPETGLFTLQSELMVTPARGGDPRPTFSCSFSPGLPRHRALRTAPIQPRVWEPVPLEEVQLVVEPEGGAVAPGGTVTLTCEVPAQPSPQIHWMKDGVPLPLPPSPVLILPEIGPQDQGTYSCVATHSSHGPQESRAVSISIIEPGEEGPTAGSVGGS

B1: anti-human RAGE monoclonal antibody 7F9 (murine, hybridoma-derived) (antibody, V domains shown)
VH: EEKLEESGGGLVQLGGSMKISCVASGFTLSNYWMDWVRQSPEKGLEWIAEIRLKSNYYSTHYAESVKGRFSISRDDSKGSVSLQMDNLTAEDTGIYFCARNAYWYFDVWGTGTTVTVSS
VL: DIVMTQSHKFMSTSVGDRVSATCKASQDVGTSVAWYQQKLGQSPKLLIYWTSTRHTGVPDRFTGSGSGTDFTLTISNVQSEDLADYFCQQYNNYPLTFGDGTKLELKR
notes: also called mAb7F9; MAb 7F9
For the molecule B1, the binding result (in [1]; with RAGE-derived peptide 3; with RAGE-derived peptide 9; with RAGE-derived peptide 4; with RAGE-derived peptide 2; with RAGE-derived peptide 6) was “no binding” throughout. Besides, the binding result (with RAGE-derived peptide 1; in [2]; in assay [3]; in assay [4]) was “no binding” throughout.

B2: anti-human RAGE monoclonal antibody 11E6 (murine, hybridoma-derived) (antibody, V domains shown)
VH: QIQLVQSGPELKKPGETVKISCKASGYTFTNFGMNWVKQAPGKGLKWMGYINTNTGESIYSEEFKGRFAFSLETSASTAYLQINNLKNEDTATYFCARSRMVTAYGMDYWGQGTSVTVSS
VL: DIVMTQSQKFMSTSVGDRVSITCKASQNVGTAVAWYQQRPGQSPKLLIFSASNRYTGVPDRFTGSGSGTDFTLTLSNMQPEDLADYFCQQYSSYPLTFGVGTKLELKR
notes: also called mAb11E6; ML37-11E6
Regarding B2, the binding result (in assay [1]; with RAGE-derived peptide 3; in the assay with RAGE-derived peptide 9; with RAGE-derived peptide 4; with RAGE-derived peptide 2; in the assay with RAGE-derived peptide 6) was “no binding” throughout. The binding result (with RAGE-derived peptide 1; in assay [3]) was “no binding” throughout. Moreover, the “EC50 (read off the curve)” value is around 600 pM in assay [2] and around 40 pM in assay [4].

B3: anti-human RAGE monoclonal antibody 4E5 (murine, hybridoma-derived) (antibody, V domains shown)
VH: QVQLQQSGAELVRPGTSVKVSCKASGYAFNNYLIEWIKQRPGQGLEWIGVINPGSGGTNHNEKFKVKATLTADKSSSTAYIQLSSLTSDDSAVYFCARSAGTARARFAYWGQGTLVTVSA
VL: DIQMTQSPSSLSASLGERVSLTCRASQDIGSSLNWLQQEPDGTIKRLIYATSSLDSGVPKRFSGSRSGSDYSLTISSLESEDFVDYYCLQYASFPFTFGSGTKLEIKR
notes: also called mAb4E5; ML37-4E5
Take B3: the binding result (in assay [1]; with RAGE-derived peptide 3; with RAGE-derived peptide 9; with RAGE-derived peptide 4; with RAGE-derived peptide 2; with RAGE-derived peptide 6) was “no binding” throughout. For the same molecule, the binding result (with RAGE-derived peptide 1; in [3]) was “no binding” each time. For the same molecule, the “EC50 (read off the curve)” value in [2] is around 500 pM; in assay [4], around 30 pM.

A word on the EC50 (read off the curve): it is the concentration that produces a half-maximal response. Read a low EC50 (read off the curve) as an effect from little substance.

These data come from patent US20170002075A1 (AbbVie / Abbott, published 2017).
